Experimental data published in article PMC8263624, “Asymmetric reconstruction of mammalian reovirus reveals interactions among RNA, transcriptional factor µ2 and capsid proteins” (Nature Communications, 2021).

B1: receptor binding protein σ1 (natural protein)
chain: MDPRLREEVVRLIIALTSDNGASLSKGLESRVSALEKTSQIHSDTILRITQGLDDANKRIIALEQSRDDLVASVSDAQLAISRLESSIGALQTVVNGLDSSVTQLGARVGQLETGLAELRVDHDNLVARVDTAERNIGSLTTELSTLTLRVTSIQADFESRISTLERTAVTSAGAPLSIRNNRMTMGLNDGLTLSGNNLAIRLPGNTGLNIQNGGLQFRFNTDQFQIVNNNLTLKTTVFDSINSRIGATEQSYVASAVTPLRLNSSTKVLDMLIDSSTLEINSSGQLTVRSTSPNLRYPIADVSGGIGMSPNYRFRQSMWIGIVSYSGSGLNWRVQVNSDIFIVDDYIHICLPAFDGFSIADGGDLSLNFVTGLLPPLLTGDTEPAFHNDVVTYGAQTVAIGLSSGGAPQYMSKNLWVEQWQDGVLRLRVEGGGSITHSNSKWPAMTVSYPRSFT
notes: 12 trimers in each particle; Seen only in the sub-particle reconstruction; also called σ1 trimer; σ1 spike
B2: capsid shell protein (CSP) λ1 (natural protein)
chain: MKRIPRKTKGKSSGKGNDSTERADDGSSQLRDKQNNKAGPATTEPGTSNREQYKARPGIASVQRATESAEMPMKNNDEGTPDKKGNTKGDLVNEHSEAKDEADEATKKQAKDTDKSKAQVTYSDTGINNANELSRSGNVDNEGGSNQKPMSTRIAEATSAIVSKHPARVGLPPTASSGHGYQCHVCSAVLFSPLDLDAHVASHGLHGNMTLTSSDIQRHITEFISSWQNHPIVQVSADVENKKTAQLLHADTPRLVTWDAGLCTSFKIVPIVPAQVPQDVLAYTFFTSSYAIQSPFPEAAVSRIVVHTRWASNVDFDRDSSVIMAPPTENNIHLFKQLLNTETLSVRGANPLMFRANVLHMLLEFVLDNLYLNRHTGFSQDHTPFTEGANLRSLPGPDAEKWYSIMYPTRMGTPNVSKICNFVASCVRNRVGRFDRAQMMNGAMSEWVDVFETSDALTVSIRGRWMARLARMNINPTEIEWALTECAQGYVTVTSPYAPIVNRLMPYRISNAERQISQIIRIMNIGNNATVIQPVLQDISVLLQRISPLQIDPTIISNTMSTVSESTTQTLSPASSILGKLRPSNSDFSSFRVALAGWLYNGVVTTVIDDSSYPKDGGSVTSLENLWDFFILALALPLTTDPCAPVKAFMTLANMMVGFETIPMDNQIYTQSRRASAFSTPHTWPRCFMNIQLISPIDAPILRQWAEIIHRYWPNPSQIRYGAPNVFGSANLFTPPEVLLLPIDHQPANVTTPTLDFTNELTNWRARVCELMKNLVDNQRYQPGWTQSLVSSMRGTLDKLKLIKSMTPMYLQQLAPVELAVIAPMLPFPPFQVPYVRLDRDRVPTMVGVTRQSRDTITQPALSLSTTNTTVGVPLALDARAITVALLSGKYPPDLVTNVWYADAIYPMYADTEVFSNLQRDMITCEAVQTLVTLVAQISETQYPVDRYLDWIPSLRASAATAATFAEWVNTSMKTAFDLSDMLLEPLLSGDPRMTQLAIQYQQYNGRTFNIIPEMPGSVIADCVQLTAEVFNHEYNLFGIARGDIIIGRVQSTHLWSPLAPPPDLVFDRDTPGVHIFGRDCRISFGMNGAAPMIRDETGLMVPFEGNWIFPLALWQMNTRYFNQQFDAWIKTGELRIRIEMGAYPYMLHYYDPRQYANAWNLTSAWLEEITPTSIPSVPFMVPISSDHDISSAPAVQYIISTEYNDRSLFCTNSSSPQTIAGPDKHIPVERYNILTNPDAPPTQIQLPEVVDLYNVVTRYAYETPPITAVVMGVP
notes: capsid shell protein λ1 of mammalian reovirus serotype Dearing 3, native in the virus particle; 120 copies in each particle as λ1A/λ1B dimers; five pairs (1-5) around each vertex; also called λ1A; λ1B
B3: membrane penetration protein µ1 (natural protein)
chain 1: MGNASSIVQTINVTGDGNVFKPSAETSSTAVPSLSLSPGMLN
chain 2: PGGVPWIAVGDETSVTSPGALRRMTSKDIPETAIINTDNSSGAVPSESALVPYIDEPLVVVTEHAITNFTKAEMALEFNREFLDKMRVLSVSPKYSDLLTYVDCYVGVSARQALNNFQKQVPVITPTRQTMYVDSIQAALKALEKWEIDLRVAQTLLPTNVPIGEVSCPMQSVVKLLDDQLPDDSLIRRYPKEAAVALAKRNGGIQWMDVSEGTVMNEAVNAVAASALAPSASAPPLEEKSKLTEQAMDLVTAAEPEIIASLAPVPAPVFAIPPKPADYNVRTLRIDEATWLRMIPKSMNTPFQIQVTDNTGTNWHLNLRGGTRVVNLDQIAPMRFVLDLGGKSYKETSWDPNGKKVGFIVFQSKIPFELWTAASQIGQATVVNYVQLYAEDSSFTAQSIIATTSLAYNYEPEQLNKTDPEMNYYLLATFIDSAAITPTNMTQPDVWDALLTMSPLSAGEVTVKGAVVSEVVPADLIGSYTPESLNASLPNDAARCMIDRASKIAEAIKIDDDAGPDEYSPNSVPIQGQLAISQLETGYGVRIFNPKGILSKIASRAMQAFIGDPSTIITQAAPVLSDKNNWIALAQGVKTSLRTKSLSAGVKTAVSKLSSSESIQNWTQGFLDKVSAHFPAPKPDCPTSGDSGESSNRRVKRDSYAGVVKRGYTR
modifications: N-myristoyl group at the amino terminus
notes: N-terminal (N-myristoyl) fragment of penetration protein μ1 of mammalian reovirus serotype Dearing 3, up to the autolytic cleavage site between N42 and P43; penetration protein μ1 of mammalian reovirus serotype Dearing 3 from the autolytic cleavage site between N42 and P43 onwards; 600 copies (200 trimers) in each particle; also called μ1; penetration protein μ1; copies: 3 + 3
B4: mRNA capping protein λ2 (enzyme)
chain: MANVWGVRLADSLSSPTIETRTRQYTLHDLCSDLDANPGREPWKPLRNQRTNNIVAVQLFRPLQGLVLDTQLYGFPGAFDDWERFMREKLRVLKYEVLRIYPISNYSNEHVNVFVANALVGAFLSNQAFYDLLPLLIINDTMIGDLLGTGASLSQFFQSHGDVLEVAAGRKYLQMENYSNDDDDPPLFAKDLSDYAKAFYSDTYEVLDRFFWTHDSSAGVLVHYDKPTNGHHYLLGTLTQMVSAPPYIINATDAMLLESCLEQFSANVRARPAQPVTRLDQCYHLRWGAQYVGEDSLTYRLGVLSLLATNGYQLARPIPRQLTNRWLSSFVSQIMSDGVNETPLWPQERYVQIAYDSPSVVDGATQYGYVRKNQLRLGMRISALQSLSDTPSPVQWLPQYTIDQAAMDEGDLMVSRLTQLPLRPDYGNIWVGDALSYYVDYNRSHRVVLSSELPQLPDTYFDGDEQYGRSLFSLARKIGDRSLVKDTAVLKHAYQAIDPNTGKEYLRSRQSVAYFGASAGHSGADQPLVIEPWIQGKISGVPPPSSVRQFGYDVARGAIVDLARPFPSGDYQFVYSDVDQVVDGHDDLSISSGLVESLLSSCMHATAPGGSFVVKINFPTRPVWHYIEQKILPNITSYMLIKPFVTNNVELFFVAFGVHQHSSLTWTSGVYFFLVDHFYRYETLSTISRQLPSFGYVDDGSSVTGIETISIENPGFSNMTQAARIGISGLCANVGNARKSIAIYESHGARVLTITSRRSPASARRKSRLRYLPLIDPRSLEVQARTILPADPVLFENVSGASPHVCLTMMYNFEVSSAVYDGDVVLDLGTGPEAKILELIPATSPVTCVDIRPTAQPSGCWNVRTTFLELDYLSDGWITGVRGDIVTCMLSLGAAAAGKSMTFDAAFQQLIKVLSKSTANVVLVQVNCPTDVVRSIKGYLEIDSTNKRYRFPKFGRDEPYSDMDALEKICRTAWPNCSITWVPLSYDLRWTRLALLESTTLSSASIRIAELMYKYMPIMRIDIHGLPMEKRGNFIVGQNCSLVIPGFNAQDVFNCYFNSALAFSTEDVNAAMIPQVSAQFDATKGEWTLDMVFSDAGIYTMQALVGSNANPVSLGSFVVDSPDVDITDAWPAQLDFTIAGTDVDITVNPYYRLMTFVRIDGQWQIANPDKFQFFSSASGTLVMNVKLDIADKYLLYYIRDVQSRDVGFYIQHPLQLLNTITLPTNEDLFLSAPDMREWAVKESGNTICILNSQGFVLPQDWDVLTDTISWSPSIPTYIVPPGDYTLTPL
notes: mRNA capping protein λ2 of mammalian reovirus serotype Dearing 3, native in the virus particle; 60 copies forming 12 pentameric turrets; also called capping enzyme λ2; turret

Molecular target: the molecule itself
Experiment: cryo-EM structure; asymmetric (C1) vertex sub-particle reconstructions of native MRV ISVP at 3.3 Å, asymmetric full ISVP at 4.3 Å; isolated virus particles in PBS pH 7.4; proteins assembled in the particle, in situ

| Protein | stoichiometry N |
| --- | --- |
| B1 | 3 |
| B2 | 2 |
| B3 | 3 |
| B4 | 5 |
